Data reported in PMC6080931 (The Journal of Cell Biology, 2018).

B1: Atg18-TAP (overproduced, of the purified Atg2–Atg18 complexes) (natural protein, S. cerevisiae, UniProt P43601 1-500, looked up)
chain: MSDSSPTINFINFNQTGTCISLGTSKGFKIFNCEPFGKFYSEDSGGYAIVEMLFSTSLLALVGIGDQPALSPRRLRIINTKKHSIICEVTFPTSILSVKMNKSRLVVLLQEQIYIYDINTMRLLHTIETNPNPRGLMAMSPSVANSYLVYPSPPKVINSEIKAHATTNNITLSVGGNTETSFKRDQQDAGHSDISDLDQYSSFTKRDDADPTSSNGGNSSIIKNGDVIVFNLETLQPTMVIEAHKGEIAAMAISFDGTLMATASDKGTIIRVFDIETGDKIYQFRRGTYATRIYSISFSEDSQYLAVTGSSKTVHIFKLGHSMSNNKLDSDDSNMEEAAADDSSLDTTSIDALSDEENPTRLAREPYVDASRKTMGRMIRYSSQKLSRRAARTLGQIFPIKVTSLLESSRHFASLKLPVETNSHVMTISSIGSPIDIDTSEYPELFETGNSASTESYHEPVMKMVPIRVVSSDGYLYNFVMDPERGGDCLILSQYSILMD

What was measured:
[1] = target: Atg2 (untagged, overproduced, of the purified Atg2–Atg18 complexes) (S. cerevisiae) (UniProt P53855); assay: liposome flotation assay
Sequence of Atg2 (untagged, overproduced, of the purified Atg2–Atg18 complexes) (S. cerevisiae) (P53855 whole entry, one chain of several): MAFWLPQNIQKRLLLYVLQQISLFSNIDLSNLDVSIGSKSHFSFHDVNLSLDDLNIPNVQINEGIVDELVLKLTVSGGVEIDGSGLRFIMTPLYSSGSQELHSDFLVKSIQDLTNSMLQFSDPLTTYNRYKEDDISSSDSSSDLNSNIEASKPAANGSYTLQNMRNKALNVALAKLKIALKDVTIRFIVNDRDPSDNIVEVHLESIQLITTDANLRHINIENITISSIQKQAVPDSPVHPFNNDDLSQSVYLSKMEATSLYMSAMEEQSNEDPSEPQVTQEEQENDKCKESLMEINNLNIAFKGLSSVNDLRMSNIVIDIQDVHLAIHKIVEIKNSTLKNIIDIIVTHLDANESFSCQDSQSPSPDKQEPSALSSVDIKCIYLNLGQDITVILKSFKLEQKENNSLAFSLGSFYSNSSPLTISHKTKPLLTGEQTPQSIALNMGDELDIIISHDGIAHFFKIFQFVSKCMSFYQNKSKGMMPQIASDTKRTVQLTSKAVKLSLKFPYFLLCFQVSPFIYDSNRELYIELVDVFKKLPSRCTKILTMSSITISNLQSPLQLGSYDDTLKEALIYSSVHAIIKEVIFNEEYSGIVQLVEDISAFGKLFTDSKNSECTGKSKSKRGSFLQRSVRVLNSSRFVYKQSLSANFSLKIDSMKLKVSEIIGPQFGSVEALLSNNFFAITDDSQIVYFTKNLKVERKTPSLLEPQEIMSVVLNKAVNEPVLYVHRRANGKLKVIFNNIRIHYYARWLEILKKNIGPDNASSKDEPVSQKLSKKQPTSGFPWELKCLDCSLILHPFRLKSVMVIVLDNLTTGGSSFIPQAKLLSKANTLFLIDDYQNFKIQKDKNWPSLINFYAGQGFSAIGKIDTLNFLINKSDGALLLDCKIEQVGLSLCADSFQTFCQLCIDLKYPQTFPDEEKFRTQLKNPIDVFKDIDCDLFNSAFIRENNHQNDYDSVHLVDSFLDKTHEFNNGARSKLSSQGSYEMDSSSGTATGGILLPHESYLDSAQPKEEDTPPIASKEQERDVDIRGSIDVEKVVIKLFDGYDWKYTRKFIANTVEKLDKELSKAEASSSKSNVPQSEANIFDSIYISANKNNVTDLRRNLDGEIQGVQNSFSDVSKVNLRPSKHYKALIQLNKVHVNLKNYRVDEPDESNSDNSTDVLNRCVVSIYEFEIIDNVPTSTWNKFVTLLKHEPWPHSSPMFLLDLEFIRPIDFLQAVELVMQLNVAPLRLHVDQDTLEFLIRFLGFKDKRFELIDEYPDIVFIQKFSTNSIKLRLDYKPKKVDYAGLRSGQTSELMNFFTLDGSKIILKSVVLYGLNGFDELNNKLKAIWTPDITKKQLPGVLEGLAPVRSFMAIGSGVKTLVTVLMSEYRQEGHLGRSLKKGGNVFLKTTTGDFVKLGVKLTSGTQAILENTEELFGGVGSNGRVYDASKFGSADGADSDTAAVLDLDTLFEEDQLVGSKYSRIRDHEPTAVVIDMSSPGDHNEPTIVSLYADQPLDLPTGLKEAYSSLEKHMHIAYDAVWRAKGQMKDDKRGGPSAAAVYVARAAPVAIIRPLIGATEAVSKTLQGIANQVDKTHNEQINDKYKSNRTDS

[2] = target: Atg2 (untagged, overproduced, of the purified Atg2–Atg18 complexes) (S. cerevisiae, UniProt P53855 1-1592); assay: liposome flotation assay
Sequence of Atg2 (untagged, overproduced, of the purified Atg2–Atg18 complexes) (P53855 whole entry, one chain of several): as above

Molecule | percent of Atg18^FAAG on liposomes with Atg9 [1] | stoichiometry N [2]
Atg18^FAAG-TAP (overproduced, mutant unable to bind PtdIns3P) (from UniProt P43601 1-500) (natural protein) | < 58% | 
B1 |  | ~1 ratio
